32 variants from the RNAGym collection of RNA variant scans (doi:10.7554/elife.80360) can be followed below.

Sequences and labels used below:
B1: HDV Ribozyme (parent)
chain: GGCCGGCAUGGUCCCAGCCUCCUCGCUGGCGCCGGCUGGGCAACAUUCCGAGGGGACCGUCCCCUCGGUAAUGGCGAAUGGGACCCA

In the series the parent is B1. The experiment in a line: self-cleavage, relative activity (ratio to wild type); higher = more cleavage; co-transcriptional.
As for GGCCGGCUUGGUCCCAGCCUCCUCGCUGGCGCCGGCUGGGCAACAUUUCGAGGGGACCGUCCCCUCGGUAAUGGCGAAUGGGACCCA [A8U C48U], the self-cleavage stood at 1.13.
The same measure for GGCCGGCUUGGUCCCAGCCUCCUCGCUGGCGCCGGCUGGGCAACAUUCCGAGGGGACGGUCCCCUCGGUAAUGGCGAAUGGGACCCA [A8U C58G]: 0.582; for GGCCGGCGUGGUCCCAGCCUCCUCGCUGGCGCCGGCUGGGCAACAUACCGAGGGGACCGUCCCCUCGGUAAUGGCGAAUGGGACCCA [A8G U47A]: 1.05.
The value for GGCCGGCGUGGUCCCAGCCUCCUCGCUGGCGCCGGCUGGGCAACAUCCCGAGGGGACCGUCCCCUCGGUAAUGGCGAAUGGGACCCA [A8G U47C] was 1.07; that for GGCCGGCGUGGUCCCAGCCUCCUCGCUGGCGCCGGCUGGGCAACAUGCCGAGGGGACCGUCCCCUCGGUAAUGGCGAAUGGGACCCA [A8G U47G] was 0.782.
The same measure for GGCCGGCUUGGUCCCAGCCUCCUCGCUGGCGCCGGCUGGGCAACAUUCCGAGGGGACCGUCCCCUCGGUGAUGGCGAAUGGGACCCA [A8U A70G]: 0.969.
In the case of GGCCGGCUUGGUCCCAGCCUCCUCGCUGGCGCCGGCUGGGGAACAUUCCGAGGGGACCGUCCCCUCGGUAAUGGCGAAUGGGACCCA [A8U C41G], the self-cleavage came to 0.506.
The same measure for GGCCGGCUUGGUCCCAGCCUCCUGGCUGGCGCCGGCUGGGCAACAUUCCGAGGGGACCGUCCCCUCGGUAAUGGCGAAUGGGACCCA [A8U C24G]: 0.0405.
The value for GGCCGGCUUGGUCCCAGCCGCCUCGCUGGCGCCGGCUGGGCAACAUUCCGAGGGGACCGUCCCCUCGGUAAUGGCGAAUGGGACCCA [A8U U20G] was 0.166; that for GGCCGGCUUGGUCCCAGCCUCCUCGCUGGCGCCGGCUGGGCAACAUUCCGAGCGGACCGUCCCCUCGGUAAUGGCGAAUGGGACCCA [A8U G53C] was 1.01.
The same measure for GGCCGGCUUGGUCCCAGCCUCCACGCUGGCGCCGGCUGGGCAACAUUCCGAGGGGACCGUCCCCUCGGUAAUGGCGAAUGGGACCCA [A8U U23A]: 0.804; for GGCCGGCUUGGUCCCAGCCUCCUCGCUGGCGCCGGCUGGGCCACAUUCCGAGGGGACCGUCCCCUCGGUAAUGGCGAAUGGGACCCA [A8U A42C]: 0.0692; for GGCCGGCUUGGUCCCAGCCUCCUCGCUGGCGCCGGCUGGGCAACAUUCCGAGGGGACCGUCCCCUCGGUAAUGGCUAAUGGGACCCA [A8U G76U]: 0.707.
On to GGCCGGCUUGGUCCCAGCCUCCUCGCUGGCGCCGGCUGGGCAACAUUCCGAGGGGACCGUCCCCUCGGUAAUGGCAAAUGGGACCCA [A8U G76A], for which the self-cleavage came to 0.95.
The same measure for GGCCGGCUUGGUCCCAGCCUCCUCGCUGGCGACGGCUGGGCAACAUUCCGAGGGGACCGUCCCCUCGGUAAUGGCGAAUGGGACCCA [A8U C32A]: 0; for GGCCGGCUUGGUCCCAGCCUCCUCGCUGGCGGCGGCUGGGCAACAUUCCGAGGGGACCGUCCCCUCGGUAAUGGCGAAUGGGACCCA [A8U C32G]: 0.125; for GGCCGGCUUGGUCCCAGCCUCCUCGCUGGCGCCGGCUGGGCAACAUUCCGAGGGGACCGUCCCCUCGGUAAUGGCGAAUGGGAUCCA [A8U C84U]: 0.506.
Take GGCCGGCUUGGUCCCAGCCUCCUCGCUGGCGCCGGCUGGGCAACAUUCCGAGGGGACCGUCCCCUCGGUAAUGGCGAAUGGGAACCA [A8U C84A]: the self-cleavage was 0.95.
The same measure for GGCCGGCUUGGUCCCAGCCUCCUCGCUGGCACCGGCUGGGCAACAUUCCGAGGGGACCGUCCCCUCGGUAAUGGCGAAUGGGACCCA [A8U G31A]: 0.405.
The same measure for GGCCGGCUUGGUCCCAGCCUCCUCGCUGGCGCCAGCUGGGCAACAUUCCGAGGGGACCGUCCCCUCGGUAAUGGCGAAUGGGACCCA [A8U G34A]: 0.242; for GGCCGGCUUGGUCCCAGCCUCCUCGCUGGCGCCUGCUGGGCAACAUUCCGAGGGGACCGUCCCCUCGGUAAUGGCGAAUGGGACCCA [A8U G34U]: 0.142.
In the case of GGCCGGCGUGGUCCCAGCCUCCCCGCUGGCGCCGGCUGGGCAACAUUCCGAGGGGACCGUCCCCUCGGUAAUGGCGAAUGGGACCCA [A8G U23C], the self-cleavage amounted to 0.612.
The value for GGCCGGCGUGGUCCCAGCCUCCUCGCUGGCGCCGGCGGGGCAACAUUCCGAGGGGACCGUCCCCUCGGUAAUGGCGAAUGGGACCCA [A8G U37G] was 0; that for GGCCGGCUUGGUCCCAGCCUCCUCGCUGGCGCCGGCUGGGCAACAUUCCGAGGGGACCGUCCCCUGGGUAAUGGCGAAUGGGACCCA [A8U C66G] was 0.8; that for GGCCGGCUUGGUCCCAGCCUCCUCGCUGGCGCCGGCUGGGCAACAUUCCGAGGGGACCGUCCCCUUGGUAAUGGCGAAUGGGACCCA [A8U C66U] was 0.906.
The same measure for GGCCGGCUUGGUCCCAGCCUCCUCGCUGGCGCCGGCUGUGCAACAUUCCGAGGGGACCGUCCCCUCGGUAAUGGCGAAUGGGACCCA [A8U G39U]: 0.571.
For GGCCGGCGUGGUCCCAGCCUCCUCGCUGGCGCCGGCUGGGCAACAUUCCGAGGGGACCGUCCCCUCGGUAAUGGCUAAUGGGACCCA [A8G G76U], the self-cleavage stood at 0.831.
The value for GGCCGGCUUGGUCCCAGCCUCCUCGCUGGCGCCGGCUGGGCAACGUUCCGAGGGGACCGUCCCCUCGGUAAUGGCGAAUGGGACCCA [A8U A45G] was 0.489; that for GGCCGGCUUGGUCCCAGCCUCCUCGCUGGCGCCGGCUGGGCAACUUUCCGAGGGGACCGUCCCCUCGGUAAUGGCGAAUGGGACCCA [A8U A45U] was 0.587; that for GGCCGGCUUGGUCCCAGCGUCCUCGCUGGCGCCGGCUGGGCAACAUUCCGAGGGGACCGUCCCCUCGGUAAUGGCGAAUGGGACCCA [A8U C19G] was 0.106.
In the case of GGCCGGCUUGGUCCCAGCCUCCUCGCUAGCGCCGGCUGGGCAACAUUCCGAGGGGACCGUCCCCUCGGUAAUGGCGAAUGGGACCCA [A8U G28A], the self-cleavage came out at 0.0369.
The same measure for GGCCGGCUUGGUCCCAGCCUCCUCGCGGGCGCCGGCUGGGCAACAUUCCGAGGGGACCGUCCCCUCGGUAAUGGCGAAUGGGACCCA [A8U U27G]: 0.906.
